In patent US20200339678A1 (RIGEL PHARMACEUTICALS, published 2020):

T1: human TIGIT fused to a beta galactosidase portion, on YTS cells (YTS_hTIGIT/hGrb2) (human, UniProt Q495A1 22-244)
T1 sequence (looked up): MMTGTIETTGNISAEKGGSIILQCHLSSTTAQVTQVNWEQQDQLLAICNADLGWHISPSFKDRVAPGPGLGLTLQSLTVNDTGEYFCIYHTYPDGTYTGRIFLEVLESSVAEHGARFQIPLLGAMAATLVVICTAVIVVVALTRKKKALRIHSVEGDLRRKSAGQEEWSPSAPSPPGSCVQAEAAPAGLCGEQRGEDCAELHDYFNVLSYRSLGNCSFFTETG

T2: mouse TIGIT-Fc (mouse, UniProt P86176 29-148)
T2 construct: extracellular domain; also called TIGIT-ECD; not shown: Fc
T2 sequence (looked up): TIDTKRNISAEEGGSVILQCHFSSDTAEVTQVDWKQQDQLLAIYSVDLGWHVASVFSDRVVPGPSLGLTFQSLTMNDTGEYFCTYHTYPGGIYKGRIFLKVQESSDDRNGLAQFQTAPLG

T3: His-tagged recombinant Mouse TIGIT (mouse, UniProt P86176 29-148, limits assumed)
T3 construct: coated antigen of the direct ELISA; not shown: His tag
T3 sequence (looked up): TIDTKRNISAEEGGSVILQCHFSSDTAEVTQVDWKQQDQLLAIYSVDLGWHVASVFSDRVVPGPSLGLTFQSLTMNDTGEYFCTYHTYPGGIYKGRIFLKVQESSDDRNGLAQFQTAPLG

T4: biotinylated human TIGIT (human, UniProt Q495A1 22-141, biotinylated (EZ-Link NHS-PEG4-biotin kit))
T4 construct: extracellular domain; also called TIGIT-ECD
T4 sequence (looked up): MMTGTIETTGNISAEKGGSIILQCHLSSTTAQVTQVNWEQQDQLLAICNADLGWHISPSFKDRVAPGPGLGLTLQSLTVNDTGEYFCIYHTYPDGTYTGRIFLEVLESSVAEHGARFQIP

T5: His-tagged recombinant Human TIGIT (human, UniProt Q495A1 22-141)
T5 construct: coated antigen of the direct ELISA; not shown: His tag
T5 sequence (looked up): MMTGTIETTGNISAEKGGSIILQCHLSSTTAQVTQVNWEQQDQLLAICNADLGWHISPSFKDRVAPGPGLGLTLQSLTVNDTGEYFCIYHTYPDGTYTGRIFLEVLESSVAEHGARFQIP

T6: His-tagged recombinant Mouse TIGIT (mouse, UniProt P86176 29-148, limits assumed)
T6 construct: not shown: His tag
T6 sequence (looked up): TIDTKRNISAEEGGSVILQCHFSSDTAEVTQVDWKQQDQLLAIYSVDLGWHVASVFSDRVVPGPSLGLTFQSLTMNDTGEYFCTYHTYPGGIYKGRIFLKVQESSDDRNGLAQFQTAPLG

T7: His-tagged recombinant Human TIGIT (human, UniProt Q495A1 22-141)
T7 construct: also called VSIG9; VSTM3; not shown: His tag
T7 sequence (looked up): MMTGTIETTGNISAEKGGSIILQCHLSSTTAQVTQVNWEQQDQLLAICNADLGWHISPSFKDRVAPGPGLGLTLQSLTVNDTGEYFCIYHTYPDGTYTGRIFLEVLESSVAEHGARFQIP


Key:
[1] = target: T1, human TIGIT fused to a beta …; assay: cell-based or functional assay
mouse TIGIT-Fc = target: T2, mouse TIGIT-Fc; assay: comp. ELISA vs PVR
Description: (§1) Antibodies were serially diluted in a 10-point curve starting at 1 μM in 3-fold steps. […] Units are in microM.

[2] = target: T3, His-tagged recombinant Mouse TIGIT; assay: ELISA
Description: (§2) Binding affinities for antigen binding to anti-TIGIT monoclonal antibodies were determined by ELISA. […] Antibodies to be tested were diluted to 1 μM in PBS buffer containing 1% BSA and diluted 3-fold in a 10-point curve. […] Detection of the secondary antibody was determined using streptavidin-HRP and TMB reagent. All assays were performed at room temperature. Curve-fitting software was used to determine the EC₅₀ for each antibody.

biotinylated human TIGIT = target: T4, biotinylated human TIGIT; assay: comp. ELISA vs PVR
Description: as §1

[3] = target: T5, His-tagged recombinant Human TIGIT; assay: ELISA
Description: as §2

[4] = target: T6, His-tagged recombinant Mouse TIGIT; assay: ELISA, coated His-tagged mouse TIGIT
Description: as §2

[5] = target: T7, His-tagged recombinant Human TIGIT; assay: ELISA, coated His-tagged human TIGIT
Description: as §2

| Binder | YTS_hTIGI/hGrbs_EFC_Agonism, 221_WT [1] | YTS_hTIGI/hGrbs_EFC_Antagonism, 221_hPVR/ICAM [1] | IC50 (mouse TIGIT-Fc) | EC50 [2] | IC50 (biotinylated human TIGIT) | EC50 [3] | EC50 [4] | EC50 [5] |
| --- | --- | --- | --- | --- | --- | --- | --- | --- |
| Ab17i1 (antibody, V domains shown, hIgG1 of Ab17) VH: EVQLLESGGGLVQPGGSLRLSCAASGFTFSSYAMSWVRQAPGKGLEWVASIKSSGGNTYYADSVKGRFTISRDNSKNTLYLQMNSLRAEDTAVYYCAREPYSYWMDYWGQGTLVTVSS VL: not shown | 0.0012 µM | > 1 µM | 0.0011 µM | 0.0001 µM | – | – | – | – |
| Ab1i3 (antibody, V domains shown) VH: EVQLLESGGGLVQPGGSLRLSCAASGFTFSSYAMHWVRQAPGKGLEWVSGISSNGGSTSYADSVKGRFTISRDNSKNTLYLQMNSLRAEDTAVYYCARVPYSVWIDYWGQGTLVTVSS VL: not shown | > 1 µM | 0.172 µM | – | – | – | – | – | – |
| Ab1i1 (antibody, V domains shown) VH: EVQLLESGGGLVQPGGSLRLSCAASGFTFSSYAMHWVRQAPGKGLEWVSGISSNGGSTSYADSVKGRFTISRDNSKNTLYLQMNSLRAEDTAVYYCARVPYSVWIDYWGQGTLVTVSS VL: not shown | 0.0091 µM | > 1 µM | – | – | – | – | – | – |
| Ab40 (Fab, V domains shown) VH: EVQLLESGGGLVQPGGSLRLSCAASGFTFSSYGMNWVRQAPGKGLEWVAGIKYSSGNKYYADSVKGRFTISRDNSKNTLYLQMNSLRAEDTAVYYCARGPYDVWMDYWGQGTLVTVSS VL: not shown | > 1 µM | 0.0023 µM | > 1 µM | – | 0.0038 µM | 0.0003 µM | – | – |
| Ab17i2 (antibody, V domains shown, mIgG2a of Ab17) VH: EVQLLESGGGLVQPGGSLRLSCAASGFTFSSYAMSWVRQAPGKGLEWVASIKSSGGNTYYADSVKGRFTISRDNSKNTLYLQMNSLRAEDTAVYYCAREPYSYWMDYWGQGTLVTVSS VL: not shown | – | > 1 µM | 0.0016 µM | 0.0002 µM | – | – | – | – |
| Ab40i2 (antibody, V domains shown, hIgG1 of Ab40, G33S) VH: EVQLLESGGGLVQPGGSLRLSCAASGFTFSSYSMNWVRQAPGKGLEWVAGIKYSSGNKYYADSVKGRFTISRDNSKNTLYLQMNSLRAEDTAVYYCARGPYDVWMDYWGQGTLVTVSS VL: not shown | 0.0011 µM | 0.186 µM | > 1 µM | – | 0.002 µM | 0.0002 µM | – | – |
| Ab53i5 (antibody, V domains shown) VH: EVQLLESGGGLVQPGGSLRLSCAASGFTFSSYGMHWVRQAPGKGLEWVASIKYSSSNKYYADSVKGRFTISRDNSKNTLYLQMNSLRAEDTAVYYCARGPYDVWLDYWGQGTLVTVSS VL: not shown | 0.0057 µM | 0.526 µM | > 1 µM | – | 0.0021 µM | 0.0002 µM | – | – |
| Ab40i1 (antibody, V domains shown, hIgG1 of Ab40) VH: EVQLLESGGGLVQPGGSLRLSCAASGFTFSSYGMNWVRQAPGKGLEWVAGIKYSSGNKYYADSVKGRFTISRDNSKNTLYLQMNSLRAEDTAVYYCARGPYDVWMDYWGQGTLVTVSS VL: not shown | > 1 µM | 0.0002 µM | > 1 µM | – | 0.0013 µM | 0.0003 µM | – | – |
| Ab53i7 (antibody, V domains shown, hIgG1 of Ab53, S52aY) VH: EVQLLESGGGLVQPGGSLRLSCAASGFTFSSYSMHWVRQAPGKGLEWVASIKYSSSNKYYADSVKGRFTISRDNSKNTLYLQMNSLRAEDTAVYYCARGPYDVWLDYWGQGTLVTVSS VL: not shown | 0.0681 µM | 1.93 µM | – | – | 0.0363 µM | 0.0032 µM | – | – |
| Ab53i8 (antibody, V domains shown, mIgG2a of Ab53, S52aY) VH: EVQLLESGGGLVQPGGSLRLSCAASGFTFSSYSMHWVRQAPGKGLEWVASIKYSSSNKYYADSVKGRFTISRDNSKNTLYLQMNSLRAEDTAVYYCARGPYDVWLDYWGQGTLVTVSS VL: not shown | 0.02 µM | > 1 µM | – | – | 0.0125 µM | 0.0017 µM | – | – |
| Ab153 (Fab, V domains shown, ARV set) VH: EVQLLESGGGLVQPGGSLRLSCAASGFTFSSYSMHWVRQAPGKGLEWVSSINSNAGTISYADSVKGRFTISRDNSKNTLYLQMNSLRAEDTAVYYCARVPYDYWIDYWGQGTLVTVSS VL: not shown | – | – | – | – | – | – | 0.0139 µM | 0.0877 µM |
| Ab1i11 (antibody, V domains shown, mIgG2a of Ab1, W100A) VH: EVQLLESGGGLVQPGGSLRLSCAASGFTFSSYAMHWVRQAPGKGLEWVSGISSNGGSTSYADSVKGRFTISRDNSKNTLYLQMNSLRAEDTAVYYCARVPYSVAIDYWGQGTLVTVSS VL: not shown | – | – | > 1 µM | – | > 1 µM | – | – | – |
| Ab1i6 (antibody, V domains shown, mIgG2a of Ab1, P96A) VH: EVQLLESGGGLVQPGGSLRLSCAASGFTFSSYAMHWVRQAPGKGLEWVSGISSNGGSTSYADSVKGRFTISRDNSKNTLYLQMNSLRAEDTAVYYCARVAYSVWIDYWGQGTLVTVSS VL: not shown | – | – | > 1 µM | – | 0.0469 µM | 0.0294 µM | – | – |
| Ab1i12 (antibody, V domains shown, mIgG2a of Ab1, Y97A) VH: EVQLLESGGGLVQPGGSLRLSCAASGFTFSSYAMHWVRQAPGKGLEWVSGISSNGGSTSYADSVKGRFTISRDNSKNTLYLQMNSLRAEDTAVYYCARVPASVWIDYWGQGTLVTVSS VL: not shown | – | – | > 1 µM | – | > 1 µM | – | – | – |
| Ab197 (Fab, V domains shown, ARV set) VH: EVQLLESGGGLVQPGGSLRLSCAASGFTFSSYSMHWVRQAPGKGLEWVAYIKGSAGSTSYADSVKGRFTISRDNSKNTLYLQMNSLRAEDTAVYYCARVPYGVWMDYWGQGTLVTVSS VL: not shown | – | – | – | – | – | – | 0.0814 µM | 0.0111 µM |
| Ab169 (Fab, V domains shown, ARV set) VH: EVQLLESGGGLVQPGGSLRLSCAASGFTFSSYSMHWVRQAPGKGLEWVASIKSDTSSTYYADSVKGRFTISRDNSKNTLYLQMNSLRAEDTAVYYCARVPYDYWIDYWGQGTLVTVSS VL: not shown | – | – | – | – | – | – | 0.11 µM | 0.153 µM |
| Ab185 (Fab, V domains shown, ARE set) VH: EVQLLESGGGLVQPGGSLRLSCAASGFTFSSYAMSWVRQAPGKGLEWVAAIKSNAGSSYYADSVKGRFTISRDNSKNTLYLQMNSLRAEDTAVYYCAREPYSYWLDYWGQGTLVTVSS VL: not shown | – | – | – | – | – | – | 0.101 µM | 0.0817 µM |
| Ab157 (Fab, V domains shown, ARV set) VH: EVQLLESGGGLVQPGGSLRLSCAASGFTFSSYSMNWVRQAPGKGLEWVASINSNAGSTYYADSVKGRFTISRDNSKNTLYLQMNSLRAEDTAVYYCARVPYDYWMDYWGQGTLVTVSS VL: not shown | – | – | – | – | – | – | 0.116 µM | 0.165 µM |
| Ab165 (Fab, V domains shown, ARE set) VH: EVQLLESGGGLVQPGGSLRLSCAASGFTFSSYAMSWVRQAPGKGLEWVAAIKSSTGTIYYADSVKGRFTISRDNSKNTLYLQMNSLRAEDTAVYYCAREPYSVWLDYWGQGTLVTVSS VL: not shown | – | – | – | – | – | – | 0.229 µM | 0.0128 µM |
| Ab175 (Fab, V domains shown, ARV set) VH: EVQLLESGGGLVQPGGSLRLSCAASGFTFSSYSMHWVRQAPGKGLEWVSAINSNAGSSSYADSVKGRFTISRDNSKNTLYLQMNSLRAEDTAVYYCARVPYGVWMDYWGQGTLVTVSS VL: not shown | – | – | – | – | – | – | 0.0393 µM | 0.0052 µM |
